According to publication PMC8725580:
Changes are numbered by the printed parent chain.

Key:
Details in all cases: 20 mM Tris pH 7.5, 1 mM CaCl2, 1 mM DTT, 10 ug/ml poly(dI-dC), 100 ug/ml BSA, 37 C, 10 min; probe 0.05 uM (0.1 uM restricted)
[1] = tested on: T1, CovR D53E D52E (Streptococcus salivarius HSISS4), ORF:ee641105; assay: competition
T1 sequence: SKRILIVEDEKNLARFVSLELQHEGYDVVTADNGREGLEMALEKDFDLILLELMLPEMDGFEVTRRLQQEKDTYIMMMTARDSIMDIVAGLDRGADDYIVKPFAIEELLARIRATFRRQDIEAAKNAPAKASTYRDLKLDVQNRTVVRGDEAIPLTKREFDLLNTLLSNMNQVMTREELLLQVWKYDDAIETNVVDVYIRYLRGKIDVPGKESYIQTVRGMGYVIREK

[2] = tested on: T2, CovR D53A D52A (Streptococcus salivarius HSISS4), ORF:ee641105; assay: EMSA
T2 sequence: T1 sequence with E52A

[3] = tested on: T1, CovR D53E D52E (Streptococcus salivarius HSISS4), ORF:ee641105; assay: EMSA
[4] = tested on: T3, CovR WT (Strep-tagged) (Streptococcus salivarius HSISS4), ORF:ee641105; assay: EMSA
T3 sequence: T1 sequence with E52D

Sequence	binding [1]	binding [2]	binding [3]	binding [4]
CCTGTAGTTCCCTTACATACAGTGCGTTACTTTGAGAATGCAGACCGCTCGACGATTCAGATGTTGCATGCCATCTCGCAAAACGTTTCCTTGTCAGAGGCCTCTATTTGTCCTATGAATCAGCTTCTTTTCTCGCCTCAAGAAATGGAA (double strand) [CDSdnaE unlabeled competitor]	no binding			
TTGATACAAAGGAAGGTCTTTCCTATATAAAATGTATAAAAATAGCTTATTTTCACTATTGTTCTGTTAAAAATGCATTAACTGTATATTAATTATATTATAATTATGATATAATGTTTTTAAAATTTCGAAATAAAGGAGTGTCTCTTG (double strand) [PcomR HSISS4 (150 bp)]		binds more weakly	binds	binds
AAAAATAATGAGCACTTAAAAGAATGGGATAAGGACAATATCAAAAATGTTGTTCTATCTCATTCTTTTTGTTTGAAACAGTTAATATGGTAGAGGCGTTTTTACTAGTAGCGTATGCTATAATAGAAAGATAGAAAGGAGGCCTTCATG (double strand) [PdnaE unlabeled competitor]	no binding			
CAAGAGACACTCCTTTATTTCGAAATTTTAAAAACATTATATCATAATTATAATATAATTAATATACAGTTAATGCATTTTTAACAGAACAATAGTGAAAATAAGCTATTTTTATACATTTTATATAGGAAAGACCTTCCTTTGTATCAA (double strand) [PcomR unlabeled competitor]	binds			
